Experimental data from paper PMC12460018.

Columns and labels:
[1] = biological target: recombinant von Willebrand factor, furin-matured (human) (UniProt P04275); assay: ELISA + SPR; VWF:FVIIIB, measured by an ELISA combined with a chromogenic assay (ECA) and by Biacore; the table does not say which gave the percent
[2] = biological target: plasma-derived von Willebrand factor, highly purified in-house control preparation (human) (UniProt P04275); assay: as above

VWF:FVIII binding capacity (%) [1]: 108%
VWF:FVIII binding capacity (%) [2]: 109%
Substance: factor VIII, P00451 20-2351
